Assay results reported in publication PMC10393192, “Structure and DNA-bridging activity of the essential Rec114–Mei4 trimer interface”.

How the values were obtained:
Experiment in all cases: EMSA
[1] = target: Rec114(388-428) R395A/K396A;Mei4N (Saccharomyces cerevisiae;Saccharomyces cerevisiae) (UniProt P29467); conditions: EMSA: 25 mM Tris-HCl pH 7.4, 100 mM NaCl, 5 ng DNA, 20 min, room temperature; AFM: 25 mM HEPES-NaOH pH 7.4, 5 mM MgCl2, 50 mM NaCl, 10% glycerol, 30 min, RT …
[2] = tested on: Rec114(388-428);Mei4(13-43) (Saccharomyces cerevisiae;Saccharomyces cerevisiae); conditions: EMSA: 25 mM Tris-HCl pH 7.4, 100 mM NaCl, 5 ng DNA, 20 min, room temperature; AFM: 25 mM HEPES-NaOH pH 7.4, 5 mM MgCl2, 50 mM NaCl, 10% glycerol, 30 min, RT …
[3] = target: Rec114(388-428) K417A/K424A;Mei4N (Saccharomyces cerevisiae;Saccharomyces cerevisiae) (UniProt P29467); conditions: EMSA: 25 mM Tris-HCl pH 7.4, 100 mM NaCl, 5 ng DNA, 20 min, room temperature; AFM: 25 mM HEPES-NaOH pH 7.4, 5 mM MgCl2, 50 mM NaCl, 10% glycerol, 30 min, RT …
[4] = target: Rec114(386-428);Mei4N (Saccharomyces cerevisiae;Saccharomyces cerevisiae) (UniProt P29467); conditions: EMSA: 25 mM Tris-HCl pH 7.4, 100 mM NaCl, 5 ng DNA, 20 min, room temperature; AFM: 25 mM HEPES-NaOH pH 7.4, 5 mM MgCl2, 50 mM NaCl, 10% glycerol, 30 min, RT …
Rec114C;Mei4N = target: T1, Rec114C;Mei4N (Saccharomyces cerevisiae;Saccharomyces …, UniProt P32841;P29467 375-428;1-43, |); conditions: EMSA: 25 mM Tris-HCl pH 7.4, 100 mM NaCl, 5 ng DNA, 20 min, room temperature, AFM: 25 mM HEPES-NaOH pH 7.4, 5 mM MgCl2, 50 mM NaCl, 10% glycerol, 30 min, RT …
T1 sequence 1: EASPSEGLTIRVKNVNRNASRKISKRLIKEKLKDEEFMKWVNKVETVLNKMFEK
T1 sequence 2: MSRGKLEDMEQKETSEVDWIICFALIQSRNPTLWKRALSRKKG

[5] = tested on: Rec114(325-428);Mei4(1-90) (Saccharomyces cerevisiae;Saccharomyces cerevisiae); conditions: EMSA: 25 mM Tris-HCl pH 7.4, 100 mM NaCl, 5 ng DNA, 20 min, room temperature; AFM: 25 mM HEPES-NaOH pH 7.4, 5 mM MgCl2, 50 mM NaCl, 10% glycerol, 30 min, RT …
[6] = target: Rec114C;Mei4N-ybbR (Saccharomyces cerevisiae;Saccharomyces cerevisiae) (UniProt P32841); conditions: C50, unlabeled; EMSA: 25 mM Tris-HCl pH 7.4, 100 mM NaCl, 5 ng DNA, 20 min, room temperature; AFM: 25 mM HEPES-NaOH pH 7.4, 5 mM MgCl2, 50 mM NaCl, 10% glycerol, 30 min, RT …
[7] = target: Rec114C;Mei4N-ybbR-LD650 (Saccharomyces cerevisiae;Saccharomyces cerevisiae) (UniProt P32841); conditions: C50, single experiment; EMSA: 25 mM Tris-HCl pH 7.4, 100 mM NaCl, 5 ng DNA, 20 min, room temperature; AFM: 25 mM HEPES-NaOH pH 7.4, 5 mM MgCl2, 50 mM NaCl, 10% glycerol, 30 min, RT …
[8] = target: Rec114(388-428) K403A/K407A;Mei4N (Saccharomyces cerevisiae;Saccharomyces cerevisiae) (UniProt P29467); conditions: EMSA: 25 mM Tris-HCl pH 7.4, 100 mM NaCl, 5 ng DNA, 20 min, room temperature; AFM: 25 mM HEPES-NaOH pH 7.4, 5 mM MgCl2, 50 mM NaCl, 10% glycerol, 30 min, RT …
[9] = target: Rec114(388-428);Mei4N (Saccharomyces cerevisiae;Saccharomyces cerevisiae) (UniProt P29467); conditions: EMSA: 25 mM Tris-HCl pH 7.4, 100 mM NaCl, 5 ng DNA, 20 min, room temperature; AFM: 25 mM HEPES-NaOH pH 7.4, 5 mM MgCl2, 50 mM NaCl, 10% glycerol, 30 min, RT …
[10] = target: Rec114(388-428) K399A/R400A;Mei4N (Saccharomyces cerevisiae;Saccharomyces cerevisiae) (UniProt P29467); conditions: EMSA: 25 mM Tris-HCl pH 7.4, 100 mM NaCl, 5 ng DNA, 20 min, room temperature; AFM: 25 mM HEPES-NaOH pH 7.4, 5 mM MgCl2, 50 mM NaCl, 10% glycerol, 30 min, RT …
[11] = target: T2, Rec114C (Saccharomyces cerevisiae) (UniProt P32841); conditions: C50, single experiment; main text ~300-400 nM; concentration as dimer; EMSA: 25 mM Tris-HCl pH 7.4, 100 mM NaCl, 5 ng DNA, 20 min, room temperature; AFM: 25 mM HEPES-NaOH pH 7.4, 5 mM MgCl2, 50 mM NaCl, 10% glycerol, 30 min, RT …
T2 sequence: T1 sequence 1

Substance | K half [1] [nM] | K half [2] [nM] | K half [3] [nM] | K half [4] [nM] | K half (Rec114C;Mei4N) [nM] | K half [5] [nM] | K half [6] [nM] | K half [7] [nM] | K half [8] [nM] | K half [9] [nM] | K half [10] [nM] | K half (Rec114C;Mei4N; C50) [nM] | K half [11] [nM]
150-bp DNA | 1000 | 100 | 900 | 110 | 90 | 90 | 90 | 90 | 1000 | 110 | 2000 |  | 
1000-bp DNA |  |  |  |  |  |  |  |  |  |  |  | 80 | 300
